The target of one data set is T1, GLP-2R (Homo sapiens, UniProt O95838).
T1 construct: expressed in transfected cells; host or cells: HEK-293 cells, transfected and screened by Chongqing Paijin Biotechnology Co. Ltd. The receptor gene was constructed by Shanghai Shengbo Biomedical Technology Co. Ltd
T1 sequence (O95838 1-553): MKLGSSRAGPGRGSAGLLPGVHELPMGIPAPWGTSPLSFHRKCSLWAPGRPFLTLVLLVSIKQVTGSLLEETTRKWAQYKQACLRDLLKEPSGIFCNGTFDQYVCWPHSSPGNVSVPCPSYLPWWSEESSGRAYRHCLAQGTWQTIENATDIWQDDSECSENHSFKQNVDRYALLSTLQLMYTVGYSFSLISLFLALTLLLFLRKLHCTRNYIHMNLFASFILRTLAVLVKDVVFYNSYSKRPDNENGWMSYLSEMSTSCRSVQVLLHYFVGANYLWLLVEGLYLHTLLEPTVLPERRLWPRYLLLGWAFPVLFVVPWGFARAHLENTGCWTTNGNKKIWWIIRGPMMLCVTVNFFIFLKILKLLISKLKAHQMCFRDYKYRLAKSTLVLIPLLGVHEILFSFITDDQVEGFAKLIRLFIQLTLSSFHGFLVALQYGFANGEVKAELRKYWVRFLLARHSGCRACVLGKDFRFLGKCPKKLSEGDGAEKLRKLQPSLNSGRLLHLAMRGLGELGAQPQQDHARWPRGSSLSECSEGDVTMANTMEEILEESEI
Nature of the data set: In vitro activity (cAMP) assay of glucagon-like peptide-2 mutants in HEK-293-GLP-2R cells. It is filed as cell-based. The conditions noted are these: for in vitro activities compared with natural human glucagon-like peptide-2: summary statement.

The conditions of data set [1]: cited from earlier work.
A short description of data set [2]: Pharmacokinetic study in rats (ELISA). It counts as in vivo, SD rats. How it is done:
10 adult SD rats weighing 200-300 g were equally divided into 2 groups, 5 rats each group. PF01 and PF04 were administered subcutaneously at a single dose of 3 mg/Kg, respectively. Serum samples of all rats were collected before administration and 8 h, 24 h, 48 h, 72 h and 96 h after administration, and plasma concentrations were determined by ELISA.
Background: An ELISA detects its analyte on a solid surface through an enzyme-linked reagent.

The nature of data set [3]: Pharmacokinetic study in Cynomolgus macaques (LC-MS/MS, NCA). It counts as in vivo. The method, then: 4 adult Cynomolgus macaques, half males and half females, were used. PF01 was administered by subcutaneous injection at a single dose of 0.05 mg/Kg. Blood samples were collected before administration and 4 h, 8 h, 12 h, 24 h, 48 h, 72 h, 96 h, 120 h, 192 h and 288 h after administration. The concentrations of PF01 in the samples were determined by LC-MS/MS. The plasma concentration data were analyzed using WinNonlin, a pharmacokinetic data analysis software. […] The t1/2, Cmax, Tmax, AUC, Cl and Vd were calculated using a non-compartmental model (NCA).

The conditions of data set [4]: cited reference on catabolism in rats; cited from earlier work.
The mark [5] stands for this setting: cynomolgus monkey, in vivo, Cynomolgus macaques, sc single dose of 0.05 mg/Kg.

Starred links: 1 amine or outer side, 2 acyl side, 3 side chain; linkers in the order of their positions; H or OH if unused. Non-standard residues stand in square brackets, D forms with d. Residues, ends and D or L forms follow the SMILES beside them. Groups on a side chain read outwards from the residue. No end group written: not given here. *: point of attachment. C18 diacid = O=C(O)CCCCCCCCCCCCCCCCC(=O)*; γGlu = O=C(O)[C@H](CCC(=O)[*:2])N[*:1]; AEEA = NCCOCCOCC(=O)O; Aib = CC(C)(N)C(=O)O

Consider seven molecules from patent publication US20240150424A1, “DIRECTED CHEMICAL CONJUGATE OF GLUCAGON-LIKE PEPTIDE-2 MUTANT, AND USE THEREOF” (PEG-BIO BIOPHARM CO.,LTD.(CHONGQING), priority 2021, published 2024).

Method for GLP-2R: HEK-293-GLP-2R cells (HEK-293 cells were purchased from National Collection of Authenticated Cell Cultures, GLP-2R receptor gene sequence was recombinantly constructed by Shanghai Shengbo Biomedical Technology Co. Ltd., and HEK-293-GLP-2R cells were obtained by transfection and screening by Chongqing Paijin Biotechnology Co. Ltd.) were used to determine the in vitro activities of glucagon-like peptide-2 mutants. […] The cells were incubated at 37° C., 5% CO2 for 15 minutes, and then added with a cell lysis buffer. The cell lysates were extracted, and the OD value of cAMP was determined using a cAMP assay kit (RD company).

Take “PT02: glucagon-like peptide-2 mutant, SEQ ID NO: 2: HAibDGSFSDEMNTILDNLAARDFINWLIQTRITDGGGGSK (H[Aib]DGSFSDEMNTILDNLAARDFINWLIQTRITDGGGGSK)”: in the data set with GLP-2R, the “in vitro activities compared with natural human glucagon-like peptide-2” value is “consistent with the natural human glucagon-like peptide-2”. The “in vitro cell viability relative to that of Teduglutide” value with GLP-2R (text summary of Table 3, Teduglutide as a standard) is “comparable to that of Teduglutide”.

Turning to “hGLP-2: human glucagon-like peptide-2, SEQ ID NO: 9: HADGSFSDEMNTILDNLAARDFINWLIQTKITD”, the “half-life in vivo in humans” value in data set [1] is 7 min.

Regarding “PT03: glucagon-like peptide-2 mutant, SEQ ID NO: 3: HGDGSFSDEMNTILDNLAARDFINWLIQTRITDGGGGSGGGGSK”, the “in vitro activities compared with natural human glucagon-like peptide-2” value with GLP-2R was “consistent with the natural human glucagon-like peptide-2”.

`CC[C@H](C)[C@H](NC(=O)[C@H](Cc1ccccc1)NC(=O)[C@H](CC(=O)O)NC(=O)[C@H](CCCNC(=N)N)NC(=O)[C@H](C)NC(=O)[C@H](C)NC(=O)[C@H](CC(C)C)NC(=O)[C@H](CC(N)=O)NC(=O)[C@H](CC(=O)O)NC(=O)[C@H](CC(C)C)NC(=O)[C@@H](NC(=O)[C@@H](NC(=O)[C@H](CC(N)=O)NC(=O)[C@H](CCSC)NC(=O)[C@H](CCC(=O)O)NC(=O)[C@H](CC(=O)O)NC(=O)[C@H](CO)NC(=O)[C@H](Cc1ccccc1)NC(=O)[C@H](CO)NC(=O)CNC(=O)[C@H](CC(=O)O)NC(=O)CNC(=O)[C@@H](N)Cc1c[nH]cn1)[C@@H](C)O)[C@@H](C)CC)C(=O)N[C@@H](CC(N)=O)C(=O)N[C@@H](Cc1c[nH]c2ccccc12)C(=O)N[C@@H](CC(C)C)C(=O)N[C@H](C(=O)N[C@@H](CCC(N)=O)C(=O)N[C@H](C(=O)N[C@@H](CCCNC(=N)N)C(=O)N[C@H](C(=O)N[C@H](C(=O)N[C@@H](CC(=O)O)C(=O)NCC(=O)NCC(=O)NCC(=O)NCC(=O)N[C@@H](CO)C(=O)N[C@@H](CCCCNC(=O)COCCOCCNC(=O)COCCOCCNC(=O)CC[C@H](NC(=O)CCCCCCCCCCCCCCCCC(=O)O)C(=O)O)C(=O)O)[C@@H](C)O)[C@@H](C)CC)[C@@H](C)O)[C@@H](C)CC` [PF01] (H-HGDGSFSDEMNTILDNLAARDFINWLIQTRITDGGGGSK([AEEA-AEEA-γGlu-C18 diacid])-OH): the Cmax in data set [2] (rat, in vivo, rats, sc single dose of 3 mg/Kg) was 67500 ng/mL; in data set [3] (setting [5]), 459 ng/mL. Moreover, the half-life in data set [2] (rat, in vivo, rats, sc single dose of 3 mg/Kg, read-out: T1/2 (converted)) was 20.3 h; in data set [2] (rat, in vivo, summary statement in description, read-out: in vivo half-life in rats (converted)) it was 21 h; in data set [3] (cynomolgus monkey, in vivo, Cynomolgus macaques, sc single dose of 0.05 mg/Kg, read-out: T1/2 (average) (converted)) it was 30.9 h; in data set [3] (cynomolgus monkey, in vivo, summary statement in description, read-out: in vivo half-life in cynomolgus monkeys (converted)), 30 h. The Tmax entry in data set [2] (rats, sc single dose of 3 mg/Kg) is “basically consistent with that of PF04”; in data set [3] (setting [5]), 12 h. In addition, the “in vivo half-life, times longer than that of the natural hGLP-2” value in data set [3] (based on T1/2 in Cynomolgus macaques) is recorded as “approximately 100 times”. In data set [3] (setting [5]), the AUC is 21700 ng·h/mL.

Take “GLP-2(3-33): hydrolyzed, inactive GLP-2(3-33) formed by dipeptidyl peptidase IV (DGSFSDEMNTILDNLAARDFINWLIQTKITD; Glucagon-like peptide 2; UniProt P01275 148-178, looked up, fragment)”: the half-life in vivo in data set [4] was 0.45 h.

On to “PT04: glucagon-like peptide-2 mutant, SEQ ID NO: 4: HGDGSFSDEMNTILDNLAARDFINWLIQTHITDGGGGSK”, for which, in the data set with GLP-2R, the “in vitro activities compared with natural human glucagon-like peptide-2” value is on record as “consistent with the natural human glucagon-like peptide-2”.

As for “PT01: glucagon-like peptide-2 mutant, SEQ ID NO: 1: HGDGSFSDEMNTILDNLAARDFINWLIQTRITDGGGGSK”, the “in vitro activities compared with natural human glucagon-like peptide-2” value with GLP-2R is recorded as “consistent with the natural human glucagon-like peptide-2”.

Broadly, the Cmax is the highest concentration seen after dosing. As usually defined, the Tmax is the time at which the peak concentration occurs. In general, AUC refers to concentration integrated over time.
